Test results: the supplement of paper PMC9112550, “Optimization of the antimicrobial peptide Bac7 by deep mutational scanning” (BMC Biology, 2022)

Tested on: Escherichia coli TOP10
Assay: shrunken log2 fold change of peptide-encoding DNA abundance (4.5 h post-induction vs induction); higher = less antimicrobial activity (less host growth inhibition)
Details: time post-induction: 4.5 h; library: site-saturation at positions 5, 18, 19, 20
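Further: peptides expressed intracellularly from a pBAD plasmid library in pooled LB shake-flask culture, induced with 0.3% L-arabinose, DNA abundance read by NGS, three biological replicates, DESeq2 with apeglm shrinkage.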

Sequence | shrunken log2 fold change
RRIRLRPPRLPRPRPRPAFKPRP | -0.195
RRIRLRPPRLPRPRPRPAHQPRP | -0.0828
RRIRLRPPRLPRPRPRPAICPRP | 0.207
RRIRLRPPRLPRPRPRPAKEPRP | -0.049
RRIRLRPPRLPRPRPRPAKYPRP | -0.694
RRIRLRPPRLPRPRPRPAMEPRP | -0.0355
RRIRLRPPRLPRPRPRPAMHPRP | 0.0794
RRIRLRPPRLPRPRPRPANVPRP | -0.304
RRIRLRPPRLPRPRPRPAPEPRP | 0.109
RRIRLRPPRLPRPRPRPAQGPRP | 0.376
RRIRLRPPRLPRPRPRPASWPRP | 0.454
RRIRLRPPRLPRPRPRPATQPRP | 0.00742
RRIRLRPPRLPRPRPRPATYPRP | -0.212
RRIRLRPPRLPRPRPRPAVDPRP | 0.163
RRIRLRPPRLPRPRPRPAVKPRP | -0.131
RRIRLRPPRLPRPRPRPAWFPRP | 0.103
RRIRLRPPRLPRPRPRPAYKPRP | -0.00989
RRIRLRPPRLPRPRPRPCALPRP | -0.0607
RRIRLRPPRLPRPRPRPCDTPRP | -0.131
RRIRLRPPRLPRPRPRPCEHPRP | -0.00776
RRIRLRPPRLPRPRPRPCEKPRP | -0.00674
RRIRLRPPRLPRPRPRPCFAPRP | 0.179
RRIRLRPPRLPRPRPRPCHAPRP | -0.235
RRIRLRPPRLPRPRPRPCIYPRP | -1.16
RRIRLRPPRLPRPRPRPCKCPRP | -0.0362

Sequence | shrunken log2 fold change
RRIRLRPPRLPRPRPRPCKIPRP | -0.357
RRIRLRPPRLPRPRPRPCKMPRP | -0.503
RRIRLRPPRLPRPRPRPCLFPRP | -0.0955
RRIRLRPPRLPRPRPRPCLVPRP | 0.127
RRIRLRPPRLPRPRPRPCPHPRP | -0.0552
RRIRLRPPRLPRPRPRPCQAPRP | 0.0641
RRIRLRPPRLPRPRPRPCQCPRP | -0.672
RRIRLRPPRLPRPRPRPCQGPRP | 0.00157
RRIRLRPPRLPRPRPRPCRCPRP | 0.00318
RRIRLRPPRLPRPRPRPCRGPRP | 0.157
RRIRLRPPRLPRPRPRPCTVPRP | -0.0157
RRIRLRPPRLPRPRPRPCVDPRP | 0.0214
RRIRLRPPRLPRPRPRPCVIPRP | -0.27
RRIRLRPPRLPRPRPRPCWAPRP | -0.0392
RRIRLRPPRLPRPRPRPCWNPRP | -0.291
RRIRLRPPRLPRPRPRPCYHPRP | -0.569
RRIRLRPPRLPRPRPRPDAFPRP | 0.0575
RRIRLRPPRLPRPRPRPDAIPRP | 0.0952
RRIRLRPPRLPRPRPRPDATPRP | 0.398
RRIRLRPPRLPRPRPRPDDIPRP | -0.0521
RRIRLRPPRLPRPRPRPDEVPRP | 0.256
RRIRLRPPRLPRPRPRPDFWPRP | 0.484
RRIRLRPPRLPRPRPRPDHKPRP | -0.257
RRIRLRPPRLPRPRPRPDHTPRP | -0.0215
RRIRLRPPRLPRPRPRPDHWPRP | 0.143

Sequence | shrunken log2 fold change
RRIRLRPPRLPRPRPRPDIKPRP | -0.145
RRIRLRPPRLPRPRPRPDIQPRP | 0.0103
RRIRLRPPRLPRPRPRPDLKPRP | -0.0789
RRIRLRPPRLPRPRPRPDLLPRP | -0.0261
RRIRLRPPRLPRPRPRPDLYPRP | -0.0419
RRIRLRPPRLPRPRPRPDMAPRP | 0.0097
RRIRLRPPRLPRPRPRPDNRPRP | -0.0526
RRIRLRPPRLPRPRPRPDNYPRP | 0.0733
RRIRLRPPRLPRPRPRPDPDPRP | -0.0677
RRIRLRPPRLPRPRPRPDPFPRP | -0.228
RRIRLRPPRLPRPRPRPDPMPRP | -0.00264
RRIRLRPPRLPRPRPRPDTLPRP | -0.15
RRIRLRPPRLPRPRPRPDYFPRP | -0.146
RRIRLRPPRLPRPRPRPDYMPRP | -0.548
RRIRLRPPRLPRPRPRPEAFPRP | 0.0443
RRIRLRPPRLPRPRPRPECTPRP | 0.114
RRIRLRPPRLPRPRPRPEDVPRP | -0.0818
RRIRLRPPRLPRPRPRPEEIPRP | -0.012
RRIRLRPPRLPRPRPRPEEWPRP | 0.119
RRIRLRPPRLPRPRPRPEFVPRP | 0.0203
RRIRLRPPRLPRPRPRPEGHPRP | -0.107
RRIRLRPPRLPRPRPRPEGSPRP | -0.0436
RRIRLRPPRLPRPRPRPEHQPRP | -0.0896
RRIRLRPPRLPRPRPRPEIFPRP | 0.161
RRIRLRPPRLPRPRPRPEIWPRP | 0.198
